Measured values published in PMC3359286 (2012).

Molecular target: methemoglobin (Homo sapiens, UniProt P69905)
Assay: ELISA

Chain of methemoglobin (P69905 2-142, chain 1 of 2): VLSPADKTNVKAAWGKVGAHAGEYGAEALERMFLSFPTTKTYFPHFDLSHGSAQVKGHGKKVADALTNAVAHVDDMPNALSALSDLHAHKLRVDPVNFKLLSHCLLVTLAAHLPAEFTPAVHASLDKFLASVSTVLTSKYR
Chain of methemoglobin (chain, as listed by the source, chain 2 of 2): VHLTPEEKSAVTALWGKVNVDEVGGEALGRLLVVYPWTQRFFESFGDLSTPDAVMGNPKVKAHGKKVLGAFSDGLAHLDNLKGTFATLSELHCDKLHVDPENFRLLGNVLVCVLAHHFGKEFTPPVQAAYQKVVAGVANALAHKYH

B1: Shr (protein)
chain: QEPLVQSQLVTTVALTQDNRLLVEEIGPYASQSAGKEYYKHIEKIIVDNDVYEKSLEGERTFDINYQGIKINADLIKDGKHELTIVNKKDGDILITFIKKGDKVTFISAQKLGTTDHQDSLKKDVLSDKTVPQNQGTQKVVKSGKNTANLSLITKLSQEDGAILFPEIDRYSDNKQIKALTQQITKVTVNGTVYKDLISDSVKDTNGWVSNMTGLHLGTKAFKDGENTIVISSKGFEDVTITVTKKDGQIHFVSAKQKQHVTAEDRQSTKLDVTTLEKAIKEADAIIAKESNKDAVKDLAEKLQVIKDSYKEIKDSKLLADTHRLLKDTIESYQAGEVSINNLTEGTYTLNFKANKENSEESSMLQGAFDKRAKLVVKADGTMEISMLNTALGQFLIDFSIESKGTYPAAVRKQVGQKDINGSYIRSEFTMPIDDLDKLHKGAVLVSAMGGQESDLNHYDKYTKLDMTFSKTVTKGWSGYQVETDDKEKGVGTERLEKVLVKLGKDLDGDGKLSKTELEQIRGELRLDHYELTDISLLKHAKNITELHLDGNQITEIPKELFSQMKQLRFLNLRSNHLTYLDKDTFKSNAQLRELYLSSNFIHSLEGGLFQSLHHLEQLDLSKNRIGRLCDNPFEGLSRLTSLGFAENSLEEIPEKALEPLTSLNFIDLSQNNLALLPKTIEKLRALSTIVASRNHITRIDNISFKNLPKLSVLDLSTNEISNLPNGIFKQNNQLTKLDFFNNLLTQVEESVFPDVETLNLDVKFNQIKSVSPKVRALIGQHKLTPQKHIAKLEASLDGEKIKYHQAFSLLDLYYWEQKTNSAIDKELVSVEEYQQLLQEKGSDTVSLLNDMQVDWSIVIQLQKKASNGQYVTVDEKLLSNDPKDDLTGEFSLKDPGTYRIRKALITKKFATQKEHIYLTSNDILVAKGPHSHQKDLVENGLRALNQKQLRDGIYYLNASMLKTDLASESMSNKAINHRVTLVVKKGVSYLEVEFRGIKVGKMLGYLGELSYFVDGYQRDLAGKPVGRTKKAEVVSYFTDVTGLPLADRYGKNYPKVLRMKLIEQAKKDGLVPLQVFVPIMDAISKGSGLQTVFMRLDWASLTTEKAKVVKETNNPQENSHLTSTDQLKGPQNRQQEKTPTSPPSAATGIANLTDLLAKKATGQSTQETSKTDDTDKAEKLKQLVRDHQTSIEGKTAKDTKTKKSDKKHRSNQQSNGEESSSRYHLIAGLSSFMIVALGFIIGRKTLFK
modifications: holoShr (heme-bound), ferric hemoglobin (metHb)
B1 gave a Kd of 50 nM.
